{"source": "patent US20110014182A1", "about": "(published 2011)", "binders": {"B1": {"name": "humanised de-immunised construct H49L17 (antibody, name in Kabat numbering, V domains shown)", "VH": "QVQLVQSGAEVKEPGASVKVSCKGSGFNIKTYYVHWLRQLPEKGLEWIGRIDPENGETIYTPKFQDKATLTVDTSTDTAYMELSSLRSEDTAVYYCVSSGYWGQGTLVTVSS", "VL": "DIVMTQSPLSNPVTPGEPASISCRSSKSLLHRNGITYLYWYLQKPGQSPQLLIYQMSHLASGVPDRFSSSGSGTDFTLKISRVEAEDVGVYYCAQNLELWTFGQGTKVEIK"}}, "biological_target": "T1, human β-amyloid (1-40) peptide (human, UniProt P05067 672-711)", "T1 construct": "domain: β-amyloid (1-40); Used free in solution, coated on plates, or N- or C-terminally biotinylated, as told under assay; also called Aβ peptide (1-40); Aβ1-40", "T1 sequence (P05067 672-711 limits assumed)": "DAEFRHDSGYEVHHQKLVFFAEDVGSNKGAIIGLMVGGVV", "test": "SPR (Biacore T100), antibody captured on anti-human IgG, beta amyloid (1-40), 37°C", "procedure": "Anti-human IgG (Biacore BR-1008-39) was coupled to a CM5 biosensor chip by primary amine coupling. The anti-beta amyloid antibodies were captured on this surface. Beta amyloid (1-40) was then passed over at 256, 64, 16, 4 and 1 nM, with a 0 nM (ie buffer alone passed over the captured antibody surface) used for double referencing. […] The data was analysed using the 1:1 model inherent to the T100. The run was carried out at 25° C. and 37° C. using HBS-EP as the running buffer.\nFrom this panel some constructs were also assessed for binding kinetics at physiological temperature."}
{"binder": "B1", "values": [{"measurement": "Kd", "value": 4.21, "unit": "nM"}]}
